Assay results taken from patent publication US20150258192A1, “COMPOSITIONS AND METHODS FOR PREVENTING OR TREATING CHRONIC LUNG ALLOGRAFT DYSFUNCTION (CLAD) AND IDIOPATHIC PULMONARY FIBROSIS (IPF)” (priority 2014, published 2015).
No end group written: not given here.

Assays:
Assay in all cases: Kinase Profiling Assay
Type in all cases: biochemical
Details in all cases: peptide 100 μM
CaMKIδ(h) = CaMKIδ(h) (Homo sapiens, UniProt Q8IU85)
Procedure, shortened: (§1)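 Measured twice per kinase, activity in presence of MK2 inhibitory peptide was calculated against a 100% activity control after radiometric phosphorylation of a cationic substrate, anionic filter capture and scintillation counting; one of 266 human kinases profiled for specificity.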

DMPK(h) = target: T1, DMPK(h) (Homo sapiens, UniProt Q09013)
T1 sequence (Q09013 1-629): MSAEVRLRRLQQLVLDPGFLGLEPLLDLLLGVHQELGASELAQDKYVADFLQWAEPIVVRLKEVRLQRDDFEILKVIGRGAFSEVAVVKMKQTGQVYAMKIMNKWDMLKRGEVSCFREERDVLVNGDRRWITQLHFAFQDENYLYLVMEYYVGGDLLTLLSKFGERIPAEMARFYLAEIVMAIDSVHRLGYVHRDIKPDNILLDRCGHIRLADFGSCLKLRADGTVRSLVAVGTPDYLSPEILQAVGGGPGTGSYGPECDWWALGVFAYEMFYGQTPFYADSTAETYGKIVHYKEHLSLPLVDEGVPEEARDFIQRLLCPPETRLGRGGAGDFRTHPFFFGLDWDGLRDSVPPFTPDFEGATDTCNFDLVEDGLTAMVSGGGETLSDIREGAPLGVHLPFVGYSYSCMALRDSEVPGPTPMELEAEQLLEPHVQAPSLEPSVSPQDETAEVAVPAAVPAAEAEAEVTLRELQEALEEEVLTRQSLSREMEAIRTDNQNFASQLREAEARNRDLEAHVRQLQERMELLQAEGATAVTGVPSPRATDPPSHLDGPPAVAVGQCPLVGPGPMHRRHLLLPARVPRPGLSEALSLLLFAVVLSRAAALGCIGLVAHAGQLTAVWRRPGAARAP
Procedure, shortened: as §1

EphA5(h) = EphA5(h) (Homo sapiens, UniProt P54756)
Procedure, shortened: as §1

GRK7(h) = target: T2, GRK7(h) (Homo sapiens, UniProt Q8WTQ7)
T2 construct: purchased Millipore
T2 sequence (Q8WTQ7 1-553): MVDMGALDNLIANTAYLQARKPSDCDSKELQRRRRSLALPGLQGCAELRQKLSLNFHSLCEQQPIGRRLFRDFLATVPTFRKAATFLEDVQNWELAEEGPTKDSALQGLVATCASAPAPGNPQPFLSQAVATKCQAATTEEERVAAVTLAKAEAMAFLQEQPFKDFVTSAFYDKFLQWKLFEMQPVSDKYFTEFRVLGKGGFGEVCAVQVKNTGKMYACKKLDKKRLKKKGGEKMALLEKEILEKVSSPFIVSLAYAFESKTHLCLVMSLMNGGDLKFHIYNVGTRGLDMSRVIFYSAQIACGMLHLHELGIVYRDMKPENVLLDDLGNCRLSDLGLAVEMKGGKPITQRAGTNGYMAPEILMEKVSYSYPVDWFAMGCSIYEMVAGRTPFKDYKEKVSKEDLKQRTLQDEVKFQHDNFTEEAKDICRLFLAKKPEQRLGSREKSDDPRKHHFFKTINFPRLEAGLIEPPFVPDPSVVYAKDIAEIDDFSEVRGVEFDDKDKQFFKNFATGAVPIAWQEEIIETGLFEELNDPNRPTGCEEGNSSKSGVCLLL
Procedure, shortened: as §1

JAK2(h) = target: T3, JAK2(h) (Homo sapiens, UniProt O60674)
T3 construct: purchased Millipore
Procedure, shortened: as §1

JNK2α2(h) = target: T4, JNK2α2(h) (Homo sapiens, UniProt P45984)
T4 construct: purchased Millipore
Procedure, shortened: as §1

MLK1(h) = target: T5, MLK1(h) (Homo sapiens, UniProt P80192)
T5 construct: purchased Millipore
Procedure, shortened: as §1

MSK1(h) = target: T6, MSK1(h) (Homo sapiens, UniProt O75582)
T6 construct: purchased Millipore
Procedure, shortened: as §1

Met(D1246N)(h) = target: T7, Met(D1246N)(h) (Homo sapiens, UniProt P08581, D1228N)
T7 construct: purchased Millipore
Procedure, shortened: as §1

PKBγ(h) = PKBγ(h) (Homo sapiens, UniProt Q9Y243)
Procedure, shortened: as §1

Rsk1(h) = Rsk1(h) (Homo sapiens, UniProt Q15418)
Procedure, shortened: as §1

Rsk4(h) = target: T8, Rsk4(h) (Homo sapiens, UniProt Q9UK32)
T8 construct: purchased Millipore
Procedure, shortened: as §1

SAPK4(h) = target: T9, SAPK4(h) (Homo sapiens, UniProt O15264)
T9 construct: purchased Millipore
T9 sequence (O15264 1-365): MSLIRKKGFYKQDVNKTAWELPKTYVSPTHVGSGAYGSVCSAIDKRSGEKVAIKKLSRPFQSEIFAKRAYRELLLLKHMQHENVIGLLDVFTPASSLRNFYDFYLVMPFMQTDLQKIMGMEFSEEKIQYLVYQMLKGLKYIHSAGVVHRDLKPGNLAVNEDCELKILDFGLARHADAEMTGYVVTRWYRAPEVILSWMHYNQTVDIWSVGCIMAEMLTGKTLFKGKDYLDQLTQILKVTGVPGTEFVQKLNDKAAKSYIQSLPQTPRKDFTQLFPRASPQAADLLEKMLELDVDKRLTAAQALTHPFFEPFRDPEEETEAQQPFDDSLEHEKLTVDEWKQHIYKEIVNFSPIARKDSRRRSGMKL
Procedure, shortened: as §1

Chain of EphA5(h) (P54756 25-1037): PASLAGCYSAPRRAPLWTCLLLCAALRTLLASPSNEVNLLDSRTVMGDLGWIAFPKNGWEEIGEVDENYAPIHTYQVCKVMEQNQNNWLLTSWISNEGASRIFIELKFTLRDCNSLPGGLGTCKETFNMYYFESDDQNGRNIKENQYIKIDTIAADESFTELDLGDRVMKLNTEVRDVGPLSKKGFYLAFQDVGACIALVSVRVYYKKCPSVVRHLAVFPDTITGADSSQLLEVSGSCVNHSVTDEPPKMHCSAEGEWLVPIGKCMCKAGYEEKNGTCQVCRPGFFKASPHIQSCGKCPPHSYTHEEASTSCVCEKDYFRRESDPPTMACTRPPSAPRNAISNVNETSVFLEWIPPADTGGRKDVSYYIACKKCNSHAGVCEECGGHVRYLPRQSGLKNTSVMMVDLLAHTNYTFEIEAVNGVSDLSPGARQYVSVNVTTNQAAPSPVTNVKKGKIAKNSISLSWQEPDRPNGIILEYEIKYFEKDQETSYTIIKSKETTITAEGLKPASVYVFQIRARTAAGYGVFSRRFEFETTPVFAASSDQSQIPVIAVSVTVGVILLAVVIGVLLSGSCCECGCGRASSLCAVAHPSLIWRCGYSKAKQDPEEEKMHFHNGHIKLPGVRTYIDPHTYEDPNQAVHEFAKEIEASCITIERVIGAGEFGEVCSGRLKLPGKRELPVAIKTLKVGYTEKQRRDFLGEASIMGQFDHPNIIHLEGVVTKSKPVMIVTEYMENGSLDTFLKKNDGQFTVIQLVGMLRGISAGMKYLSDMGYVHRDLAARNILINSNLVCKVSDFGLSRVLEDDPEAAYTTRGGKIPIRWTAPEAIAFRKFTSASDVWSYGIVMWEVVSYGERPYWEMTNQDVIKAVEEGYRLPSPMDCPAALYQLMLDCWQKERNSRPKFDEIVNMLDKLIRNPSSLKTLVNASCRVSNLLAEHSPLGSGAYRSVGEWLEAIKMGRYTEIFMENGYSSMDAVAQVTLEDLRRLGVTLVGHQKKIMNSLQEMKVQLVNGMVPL
T5 sequence (P80192 whole entry): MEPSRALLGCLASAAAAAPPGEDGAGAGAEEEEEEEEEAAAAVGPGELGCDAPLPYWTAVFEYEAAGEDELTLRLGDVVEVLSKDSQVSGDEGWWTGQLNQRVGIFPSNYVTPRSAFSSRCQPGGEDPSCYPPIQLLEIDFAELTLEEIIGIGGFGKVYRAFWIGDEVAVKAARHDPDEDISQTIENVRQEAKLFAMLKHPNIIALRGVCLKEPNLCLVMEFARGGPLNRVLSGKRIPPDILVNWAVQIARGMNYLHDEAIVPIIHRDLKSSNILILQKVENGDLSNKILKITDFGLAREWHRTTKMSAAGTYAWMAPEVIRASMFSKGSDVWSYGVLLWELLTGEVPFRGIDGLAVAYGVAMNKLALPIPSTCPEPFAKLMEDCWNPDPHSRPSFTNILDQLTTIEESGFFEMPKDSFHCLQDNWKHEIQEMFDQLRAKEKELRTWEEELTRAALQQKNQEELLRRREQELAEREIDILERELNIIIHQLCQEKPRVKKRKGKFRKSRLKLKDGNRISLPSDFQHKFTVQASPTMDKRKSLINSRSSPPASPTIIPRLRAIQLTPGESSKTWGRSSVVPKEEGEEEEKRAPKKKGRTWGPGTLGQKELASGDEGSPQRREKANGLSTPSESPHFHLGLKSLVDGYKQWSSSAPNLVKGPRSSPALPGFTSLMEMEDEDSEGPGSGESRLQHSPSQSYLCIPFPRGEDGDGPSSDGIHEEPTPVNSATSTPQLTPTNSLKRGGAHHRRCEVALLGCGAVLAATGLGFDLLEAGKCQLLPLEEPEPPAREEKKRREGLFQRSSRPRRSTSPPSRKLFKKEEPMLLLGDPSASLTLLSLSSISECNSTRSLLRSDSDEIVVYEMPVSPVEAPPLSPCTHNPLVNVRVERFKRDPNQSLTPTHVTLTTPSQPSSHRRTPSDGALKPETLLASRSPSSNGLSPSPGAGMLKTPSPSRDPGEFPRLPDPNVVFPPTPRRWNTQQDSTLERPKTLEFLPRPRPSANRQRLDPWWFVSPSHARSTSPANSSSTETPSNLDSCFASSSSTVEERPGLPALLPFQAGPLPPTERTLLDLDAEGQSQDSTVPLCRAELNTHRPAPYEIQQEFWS
Chain of Rsk1(h) (Q15418 whole entry): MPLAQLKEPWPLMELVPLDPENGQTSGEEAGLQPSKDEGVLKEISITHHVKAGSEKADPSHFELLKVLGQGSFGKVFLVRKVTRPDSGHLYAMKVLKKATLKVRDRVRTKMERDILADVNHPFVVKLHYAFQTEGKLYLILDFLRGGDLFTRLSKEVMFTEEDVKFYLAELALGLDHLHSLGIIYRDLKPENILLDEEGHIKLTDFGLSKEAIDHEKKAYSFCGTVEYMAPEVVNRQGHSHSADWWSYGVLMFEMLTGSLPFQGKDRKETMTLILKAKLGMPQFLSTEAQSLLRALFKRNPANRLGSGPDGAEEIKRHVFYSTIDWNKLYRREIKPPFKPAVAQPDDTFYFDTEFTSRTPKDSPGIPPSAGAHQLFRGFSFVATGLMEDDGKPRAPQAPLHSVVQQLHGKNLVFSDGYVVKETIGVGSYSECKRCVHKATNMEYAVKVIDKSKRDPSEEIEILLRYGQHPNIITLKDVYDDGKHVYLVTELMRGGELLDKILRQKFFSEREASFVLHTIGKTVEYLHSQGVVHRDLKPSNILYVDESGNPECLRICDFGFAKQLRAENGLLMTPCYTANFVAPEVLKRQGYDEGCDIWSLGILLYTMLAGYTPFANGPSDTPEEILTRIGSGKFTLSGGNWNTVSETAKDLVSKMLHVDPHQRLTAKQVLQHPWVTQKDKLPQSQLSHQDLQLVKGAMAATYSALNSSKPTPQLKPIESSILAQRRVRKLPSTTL
T6 sequence (O75582 whole entry): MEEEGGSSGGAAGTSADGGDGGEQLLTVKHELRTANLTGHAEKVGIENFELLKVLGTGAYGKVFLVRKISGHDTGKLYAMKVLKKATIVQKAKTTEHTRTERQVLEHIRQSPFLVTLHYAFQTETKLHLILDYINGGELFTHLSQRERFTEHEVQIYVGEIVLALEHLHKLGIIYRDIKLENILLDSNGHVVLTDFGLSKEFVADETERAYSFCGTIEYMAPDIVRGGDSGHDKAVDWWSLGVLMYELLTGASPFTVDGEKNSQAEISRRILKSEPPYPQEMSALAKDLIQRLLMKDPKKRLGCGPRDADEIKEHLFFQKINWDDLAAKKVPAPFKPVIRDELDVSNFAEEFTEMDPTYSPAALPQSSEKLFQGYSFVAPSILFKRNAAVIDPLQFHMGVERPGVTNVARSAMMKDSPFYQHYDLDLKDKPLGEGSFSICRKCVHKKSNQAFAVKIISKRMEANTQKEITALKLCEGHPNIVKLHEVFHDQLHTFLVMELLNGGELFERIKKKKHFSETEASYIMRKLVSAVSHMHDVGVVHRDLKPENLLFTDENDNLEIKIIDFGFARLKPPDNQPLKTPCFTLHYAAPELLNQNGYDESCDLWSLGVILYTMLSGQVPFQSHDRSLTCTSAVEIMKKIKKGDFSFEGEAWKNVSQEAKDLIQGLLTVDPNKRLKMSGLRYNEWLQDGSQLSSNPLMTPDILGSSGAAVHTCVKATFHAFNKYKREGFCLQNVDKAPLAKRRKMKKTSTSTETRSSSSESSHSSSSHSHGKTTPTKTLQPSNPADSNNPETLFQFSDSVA
T8 sequence (Q9UK32 whole entry): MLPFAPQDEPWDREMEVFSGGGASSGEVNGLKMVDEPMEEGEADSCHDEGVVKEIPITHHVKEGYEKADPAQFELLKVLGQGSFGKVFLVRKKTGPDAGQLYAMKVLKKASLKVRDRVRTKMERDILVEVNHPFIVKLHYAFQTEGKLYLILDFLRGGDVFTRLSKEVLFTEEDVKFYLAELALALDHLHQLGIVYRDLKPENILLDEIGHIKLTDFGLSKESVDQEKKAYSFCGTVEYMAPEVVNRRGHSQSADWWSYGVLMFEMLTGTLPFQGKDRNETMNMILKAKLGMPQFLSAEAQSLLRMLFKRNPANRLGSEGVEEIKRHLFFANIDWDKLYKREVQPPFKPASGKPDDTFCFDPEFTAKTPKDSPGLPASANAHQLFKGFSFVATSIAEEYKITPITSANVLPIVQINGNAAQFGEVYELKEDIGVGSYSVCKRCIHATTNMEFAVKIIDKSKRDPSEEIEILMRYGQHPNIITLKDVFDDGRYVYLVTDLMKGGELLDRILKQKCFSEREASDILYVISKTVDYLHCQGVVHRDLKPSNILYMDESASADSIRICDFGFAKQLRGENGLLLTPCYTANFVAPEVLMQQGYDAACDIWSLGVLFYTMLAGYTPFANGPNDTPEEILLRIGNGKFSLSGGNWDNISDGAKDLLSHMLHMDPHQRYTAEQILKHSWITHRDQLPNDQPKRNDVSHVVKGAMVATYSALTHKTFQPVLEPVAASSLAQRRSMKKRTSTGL
Chain of PKBγ(h) (Q9Y243 whole entry): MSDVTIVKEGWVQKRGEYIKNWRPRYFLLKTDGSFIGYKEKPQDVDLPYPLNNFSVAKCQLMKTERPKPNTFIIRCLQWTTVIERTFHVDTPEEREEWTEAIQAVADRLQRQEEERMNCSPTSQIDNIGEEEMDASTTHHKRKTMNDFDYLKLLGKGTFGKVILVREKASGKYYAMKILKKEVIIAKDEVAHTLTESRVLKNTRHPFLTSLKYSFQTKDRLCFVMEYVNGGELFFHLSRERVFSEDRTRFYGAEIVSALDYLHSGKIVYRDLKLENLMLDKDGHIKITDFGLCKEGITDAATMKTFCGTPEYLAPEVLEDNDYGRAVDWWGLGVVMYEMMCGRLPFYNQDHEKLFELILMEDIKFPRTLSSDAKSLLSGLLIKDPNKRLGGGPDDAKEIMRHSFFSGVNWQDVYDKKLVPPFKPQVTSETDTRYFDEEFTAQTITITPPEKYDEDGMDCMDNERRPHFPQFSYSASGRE

| Sequence | % activity (CaMKIδ(h)) | % activity (DMPK(h)) | % activity (EphA5(h)) | % activity (GRK7(h)) | % activity (JAK2(h)) | % activity (JNK2α2(h)) | % activity (MLK1(h)) | % activity (MSK1(h)) | % activity (Met(D1246N)(h)) | % activity (PKBγ(h)) | % activity (Rsk1(h)) | % activity (Rsk4(h)) | % activity (SAPK4(h)) |
| --- | --- | --- | --- | --- | --- | --- | --- | --- | --- | --- | --- | --- | --- |
| HRRIKAWLKKIKALARQLGVAA (Mammal) [MMI-0500] | 0% | 12% | 42% | 93% | 49% | 81% | 43% | 8% | 90% | 20% | 34% | 29% | 48% |
| YARAAARQARAKALNRQLGVA (Mammal) [MMI-0200] | 47% | 66% | 123% | 124% | 131% |  | 84% | 50% | 149% |  |  | 125% |  |
| YARAAARQARAKALARQLGVAA [MMI-0100] |  |  | 110% |  | 89% |  | 77% |  |  |  | 86% | 99% |  |
| FAKLAARLYRKALARQLGVAA [MMI-0300] | 10% | 59% | 18% | 122% | 133% | 98% | 40% | 32% | 82% | 20% | 46% | 90% | 96% |
| KAFAKLAARLYRKALARQLGVAA [MMI-0400] | 17% | 54% | 24% | 100% |  | 96% | 33% | 28% | 31% | 41% | 54% | 91% | 91% |
